The text below walks through data of PMC11059001.

By Kd is commonly meant a measure of binding affinity in units of concentration. Read a low Kd as tighter binding.

In assay [1] the target is complement C1q (human) (UniProt P02745). The experiment in a line: MST; fluorescently labelled C1q (RED-NHS) 40 nM; TsCRT, TsCRT^Δ, mutants or P^TsCRT gradient-diluted; 50 mM Hepes, 150 mM NaCl, 2 mM CaCl2, 0.05% Tween 20, pH 7.4; Monolith NT.115, LED power 20%, MST power 50%.
For assay [2] the target is unchanged. The experiment in a line: MST; with 20 uM TsCRT^Δ P143A/E144A competitor.
The target is the same in assay [3]. The experiment in a line: MST; with 20 uM TsCRT^Δ I140A/G142A competitor.
For assay [4] the target is unchanged. The experiment in a line: MST; with 20 uM TsCRT^Δ H46A/K47A/D49A competitor.
The target is the same in assay [5]. The experiment in a line: MST; IgG incubated with fluorescently labelled C1q (40 nM) alone, no competitor; 50 mM Hepes, 150 mM NaCl, 2 mM CaCl2, 0.05% Tween 20, pH 7.4; LED power 60%, MST power 50%.
For assay [6] the target is unchanged. The experiment in a line: MST; competitive binding: IgG with fluorescently labelled C1q (40 nM) in the presence of 20 µM TsCRT^Δ, a mutant or P^TsCRT; 50 mM Hepes, 150 mM NaCl, 2 mM CaCl2, 0.05% Tween 20, pH 7.4; LED power 60%, MST power 50%.

Sequence of complement C1q (human) (P02745 23-245, chain 1 of 3): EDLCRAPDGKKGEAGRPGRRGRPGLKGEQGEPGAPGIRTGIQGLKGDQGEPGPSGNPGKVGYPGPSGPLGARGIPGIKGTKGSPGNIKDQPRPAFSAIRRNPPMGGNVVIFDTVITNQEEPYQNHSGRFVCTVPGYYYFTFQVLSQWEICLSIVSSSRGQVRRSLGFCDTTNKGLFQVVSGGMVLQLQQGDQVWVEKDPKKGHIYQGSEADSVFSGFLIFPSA
Sequence of complement C1q (human) (P02746 28-253, chain 2 of 3, further chain): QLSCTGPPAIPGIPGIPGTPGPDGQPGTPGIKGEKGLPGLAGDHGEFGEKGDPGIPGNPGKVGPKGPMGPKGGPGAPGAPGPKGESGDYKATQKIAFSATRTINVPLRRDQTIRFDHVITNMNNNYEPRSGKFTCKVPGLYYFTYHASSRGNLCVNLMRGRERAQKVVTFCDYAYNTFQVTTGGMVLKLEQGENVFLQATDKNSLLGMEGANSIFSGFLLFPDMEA
Sequence of complement C1q (human) (P02747 29-245, chain 3 of 3, further chain): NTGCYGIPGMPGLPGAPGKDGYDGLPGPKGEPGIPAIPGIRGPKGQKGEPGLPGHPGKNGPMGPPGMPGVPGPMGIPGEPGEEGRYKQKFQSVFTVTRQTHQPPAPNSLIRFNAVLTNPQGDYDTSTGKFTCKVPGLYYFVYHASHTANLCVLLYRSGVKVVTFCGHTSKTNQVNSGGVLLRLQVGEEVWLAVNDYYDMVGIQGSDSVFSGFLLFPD

In the assay with complement C1q (human) [1], “Trichinella spiralis calreticulin, full-length (natural protein)” came in with a Kd of 258 µM. “TsCRT^Δ mutant D129A (domain or fragment)” yielded a Kd in the assay with complement C1q (human) [1] of 124 µM. Against the preceding substance, the Kd is about 2.1-fold lower.

In the assay with complement C1q (human) [1], “TsCRT^Δ mutant H46A/K47A/D49A (domain or fragment)” came in with a Kd of 54.5 µM. The substance “TsCRT^Δ mutant I140A/G142A (domain or fragment)” showed a Kd with complement C1q (human) [1] of 54.4 µM.

Turning to “TsCRT^Δ mutant P143A/E144A (domain or fragment)”, in the assay with complement C1q (human) [1], the Kd worked out at 66.8 µM. As for human IgG, the figures for the equilibrium dissociation constant (Kd) with complement C1q (human) [2], with complement C1q (human) [3] and in the assay with complement C1q (human) [4] were 4.18 µM, 5.51 µM and 3.94 µM, respectively.

Regarding human IgG (antibody), the Kd with complement C1q (human) [5] was 0.14 µM. Further, in the assay with complement C1q (human) [6], the KD of C1q-IgG with P^TsCRT (20 µM) was determined as 172 µM, the KD of C1q-IgG with TsCRT^Δ (20 µM) is 409 µM and the KD of C1q-IgG with the mutant D129A amounted to 0.32 µM. For the substance “truncated Trichinella spiralis calreticulin TsCRT^Δ (22-209, GSG linker, 305-364) (domain or fragment)”, in the assay with complement C1q (human) [1], the Kd was 9.03 µM.
